Measured values taken from PMC7056577.
Values joined by “and” are separate entries in the source; they are usually repeats but may differ in a detail not shown here. Equal values may be shown once.

Biological target: T1, Arabidopsis CRY1 expressed in transgenic Arabidopsis (GFP-CRY1 and Myc-CRY1) (Arabidopsis), Q43125
T1 chain: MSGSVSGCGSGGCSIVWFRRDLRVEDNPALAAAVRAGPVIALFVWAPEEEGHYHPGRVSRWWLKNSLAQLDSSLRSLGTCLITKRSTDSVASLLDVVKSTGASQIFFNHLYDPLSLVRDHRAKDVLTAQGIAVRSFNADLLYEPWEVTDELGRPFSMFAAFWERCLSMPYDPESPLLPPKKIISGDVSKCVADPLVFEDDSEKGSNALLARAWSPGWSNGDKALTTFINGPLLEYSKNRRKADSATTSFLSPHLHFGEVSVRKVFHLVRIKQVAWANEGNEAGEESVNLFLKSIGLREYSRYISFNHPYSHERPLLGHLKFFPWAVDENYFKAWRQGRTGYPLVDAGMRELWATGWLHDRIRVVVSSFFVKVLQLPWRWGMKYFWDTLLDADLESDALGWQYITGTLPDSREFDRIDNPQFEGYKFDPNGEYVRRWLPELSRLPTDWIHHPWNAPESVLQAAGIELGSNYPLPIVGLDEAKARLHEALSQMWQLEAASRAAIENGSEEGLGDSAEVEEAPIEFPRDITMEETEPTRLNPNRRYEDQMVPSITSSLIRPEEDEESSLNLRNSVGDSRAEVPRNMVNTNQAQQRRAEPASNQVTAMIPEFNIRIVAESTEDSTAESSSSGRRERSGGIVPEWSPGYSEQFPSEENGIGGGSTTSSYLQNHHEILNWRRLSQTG
Experiment: co-IP
Details: remark: other sources report otherwise

B1: Arabidopsis CRY1 expressed in transgenic Arabidopsis (GFP-CRY1 and Myc-CRY1), Q43125 1-681 (natural protein)
chain: MSGSVSGCGSGGCSIVWFRRDLRVEDNPALAAAVRAGPVIALFVWAPEEEGHYHPGRVSRWWLKNSLAQLDSSLRSLGTCLITKRSTDSVASLLDVVKSTGASQIFFNHLYDPLSLVRDHRAKDVLTAQGIAVRSFNADLLYEPWEVTDELGRPFSMFAAFWERCLSMPYDPESPLLPPKKIISGDVSKCVADPLVFEDDSEKGSNALLARAWSPGWSNGDKALTTFINGPLLEYSKNRRKADSATTSFLSPHLHFGEVSVRKVFHLVRIKQVAWANEGNEAGEESVNLFLKSIGLREYSRYISFNHPYSHERPLLGHLKFFPWAVDENYFKAWRQGRTGYPLVDAGMRELWATGWLHDRIRVVVSSFFVKVLQLPWRWGMKYFWDTLLDADLESDALGWQYITGTLPDSREFDRIDNPQFEGYKFDPNGEYVRRWLPELSRLPTDWIHHPWNAPESVLQAAGIELGSNYPLPIVGLDEAKARLHEALSQMWQLEAASRAAIENGSEEGLGDSAEVEEAPIEFPRDITMEETEPTRLNPNRRYEDQMVPSITSSLIRPEEDEESSLNLRNSVGDSRAEVPRNMVNTNQAQQRRAEPASNQVTAMIPEFNIRIVAESTEDSTAESSSSGRRERSGGIVPEWSPGYSEQFPSEENGIGGGSTTSSYLQNHHEILNWRRLSQTG
In the case of B1, the 60F50 (fluence rate of blue light for 50% photooligomerization after 60 seconds) is reported as 14.9 μmolm^−2s^−1 and 16.2 μmolm^−2s^−1.
